Laboratory results published in patent US20110020273A1.

Molecular target: fusion protein containing the A3B3 domain of CEA (UniProt P06731)
Experiment: competitive ELISA against HRP-conjugated hMN-14 IgG (1 nM)

fusion protein containing the A3B3 domain of CEA, sequence (P06731 499-676): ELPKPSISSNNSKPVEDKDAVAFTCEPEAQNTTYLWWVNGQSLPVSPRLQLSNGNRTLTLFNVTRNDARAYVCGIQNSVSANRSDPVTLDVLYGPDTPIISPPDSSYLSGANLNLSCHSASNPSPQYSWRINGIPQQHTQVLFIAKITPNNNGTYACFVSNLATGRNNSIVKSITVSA

## TF2 (bispecific antibody)
  avidity, fold over TF1: 2 fold
